For 4 substances, Kd, mean channel fluorescence (MCF) and fold increase in staining against 264scTCR/BirA tetramers results are on record in US8772451.

The target of experiment [1] is cognate MHC/peptide of the 264scTCR (HLA-A2.1/p53 aa 264-272), form in SPR not stated (human). The experiment is described as follows: surface plasmon resonance, physiological conditions.
The target of experiment [2] is HLA-A2.1 presenting p53 (aa264-273) peptide, on T2 cells (human). Put plainly: flow cytometry on peptide-loaded T2 cells, fusion protein at 125 pM, H57-PE detection. Background: A flow cytometer gives signals particle by particle.
For experiment [3], the target named is HLA-A2.1 presenting human p53 (aa 149-157) control peptide, on T2 cells (human). The description is as above.
Experiment [4] concerns the target HLA-A2.1 presenting p53 (aa264-273) peptide, on T2 cells (human). The experiment is described as follows: quantitative flow cytometry on peptide-loaded T2 cells, PE anti-human IgG detection.

By Kd is commonly meant the constant that tells how readily two partners part at equilibrium.

In experiment [1], 264scTCR showed a Kd of 100 nM.
Regarding “264scTCR/BirA (monomeric, without biotinylation)”, the mean channel fluorescence (MCF) was 95.1 MCF in experiment [2] and 13.4 MCF in experiment [3].
“264scTCR/IgG1 fusion protein (from UniProt P01857 1-330)” registered a fold increase in staining against 264scTCR/BirA tetramers in experiment [4] of 4 to 10 fold. In addition, the mean channel fluorescence (MCF) was 863 MCF in experiment [2] and 119 MCF in experiment [3].
Take “264scTCR/trunIgG1 (from UniProt P01857 1-98)”: the mean channel fluorescence (MCF) amounted to 55.3 MCF in experiment [2] and 10.9 MCF in experiment [3].
